# Substitutions are numbered along the chain they refer to. In names and notes the source's numbering stands. Like-named read-outs stand apart in the source and are kept apart here. Where no end group is shown, it is not given here. TMR = tetramethyl rhodamine dye
# T1: wild type Rb pocket domain (Rb^P) (human, UniProt P06400 380-788)
# T1 sequence: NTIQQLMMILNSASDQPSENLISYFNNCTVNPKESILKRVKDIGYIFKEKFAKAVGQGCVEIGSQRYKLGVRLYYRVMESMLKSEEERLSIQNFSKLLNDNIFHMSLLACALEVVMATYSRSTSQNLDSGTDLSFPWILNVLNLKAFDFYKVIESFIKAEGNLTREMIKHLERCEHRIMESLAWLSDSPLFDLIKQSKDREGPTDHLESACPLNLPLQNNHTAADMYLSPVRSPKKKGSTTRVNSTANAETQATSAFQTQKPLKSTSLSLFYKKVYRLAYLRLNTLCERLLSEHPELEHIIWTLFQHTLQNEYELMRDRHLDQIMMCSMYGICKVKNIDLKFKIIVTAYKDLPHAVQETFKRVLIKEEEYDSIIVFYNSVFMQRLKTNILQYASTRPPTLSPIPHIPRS
# T2: Rb^P M704V (human, UniProt P06400 380-788, M704V)
# T2 sequence: T1 sequence with M325V
# T3: Rb^P E554K (human, UniProt P06400 380-788, E554K)
# T3 sequence: T1 sequence with E175K
# T4: Rb^P S751Y (human, UniProt P06400 380-788, S751Y)
# T4 sequence: T1 sequence with S372Y
# B1: Rb^P E533K (domain or fragment)
# chain: T1 sequence with E154K
# B2: Rb^P S534R (domain or fragment)
# chain: T1 sequence with S155R
# B3: TMR-E2F1^TD (peptide of the E2F1 transactivation domain, N-labeled with tetramethyl rhodamine) (peptide)
# peptide: {TMR}-GEGIRDLFDCDFGDLTPLD
# B4: Rb^P R656Q (domain or fragment)
# chain: T1 sequence with R277Q
# B5: Rb^P S474R (domain or fragment)
# chain: T1 sequence with S95R
# B6: Rb^P H555Y (domain or fragment)
# chain: T1 sequence with H176Y
# B7: Rb^P K548N (domain or fragment)
# chain: T1 sequence with K169N
# B8: Rb^P I703F (domain or fragment)
# chain: T1 sequence with I324F
# B9: Rb^P K530I (domain or fragment)
# chain: T1 sequence with K151I
# B10: Rb^P S474I (domain or fragment)
# chain: T1 sequence with S95I
# Tests used:
# Test in all cases: fluorescence polarisation
# [1] = biological target: TMR-E2F1^TD (peptide of the E2F1 transactivation domain, N-labeled with tetramethyl rhodamine)
# [2] = biological target: B3
# [3] = biological target: T1, wild type Rb pocket domain (Rb^P)
# Rb^P I703F = biological target: B8
# Rb^P M704V = biological target: T2, Rb^P M704V
# Rb^P E554K = biological target: T3, Rb^P E554K
# Rb^P S751Y = biological target: T4, Rb^P S751Y
# [4] = biological target: T1, wild type Rb pocket domain (Rb^P); remark: listed apart in the source
# [5] = biological target: T1, wild type Rb pocket domain (Rb^P); remark: listed apart in the source
# [6] = biological target: B3
molecule,measurement,setting,value
Rb^P E544K (from UniProt P06400 380-788) (domain or fragment),fold weaker binding relative to wild type,[1],34 fold
B1,fold weaker binding relative to wild type,[2],59 fold
B2,fold weaker binding relative to wild type,[2],820 fold
B3,Kd,[3],22 nM
same,Kd,Rb^P I703F,94 nM
same,Kd,Rb^P M704V,46 nM
same,Kd,Rb^P E554K,1740 nM
same,Kd,Rb^P S751Y,28 nM
same,Kd,[4],17 nM
same,Kd,[5],14 nM
B4,fold weaker binding relative to wild type,[2],13 fold
B5,fold weaker binding relative to wild type,[2],27 fold
B6,fold weaker binding relative to wild type,[2],12 fold
B7,fold weaker binding relative to wild type,[2],10 fold
B8,fold weaker binding at 37°C than at 25°C,[6],6 fold
same,fold weaker binding relative to wild type,[6],17 fold
same,fold weaker binding relative to wild type,[2],~5 fold
B9,fold weaker binding relative to wild type,[2],63 fold
B10,fold weaker binding relative to wild type,[2],27 fold

# — paper doi:10.1101/2024.09.22.614354 (bioRxiv, 2024)
